Assay results from patent US20200030452A1, “Process for the Manufacture of a Tumor-Vasculature Targeting Antitumor Agent” (priority 2016, published 2020).
Residues, ends and D or L forms follow the SMILES beside them. *: point of attachment. X1 = CCc1c2c(nc3ccc(OC(=O)[C@H]4CC[C@H](CNC(=O)[C@H]5CC[C@H](CN6C(=O)CC(*)C6=O)CC5)CC4)cc13)-c1cc3c(c(=O)n1C2)COC(=O)[C@]3(O)CC

Columns and labels:
Assay type in all cases: in vivo
[1] = Crossing of the blood brain barrier; conditions: by passive transcytosis mechanism
Description: (§1) Therefore, using our targeted therapy, a small amount of IF7-SN38 is required to be injected to patients. The efficiency of IF7-SN38 is unprecedented in mice, in particular for the brain malignancies. […] It is believed that IF7-SN38 would work far better than PEGylated SN38 by targeting malignant tumors including brain malignancy. The low dosage, specificity, and easily degrading nature of IF7-SN38 in targeted cells to release SN38, are the major factors for the superiority of our drug to PEG-SN38.

[2] = system: tumors; assay: Treatment of mice with tumors using IF7-SN38
Description: as §1

[3] = system: human colon HCT116 tumors; assay: IF7-SN38 injected intravenously into nude mice carrying human colon HCT116 tumors; conditions: intravenous, low dosages

Structure (SMILES): CCc1c2c(nc3ccc(OC(=O)[C@H]4CC[C@H](CNC(=O)[C@H]5CC[C@H](CN6C(=O)CC(SC[C@H](NC(=O)[C@H](CCCNC(=N)N)NC(=O)[C@H](CCC(N)=O)NC(=O)[C@H](Cc7c[nH]c8ccccc78)NC(=O)[C@H](CC(C)C)NC(=O)[C@H](CC(C)C)NC(=O)[C@H](Cc7ccccc7)NC(=O)[C@@H](N)[C@@H](C)CC)C(=O)N[C@@H](CCCNC(=N)N)C(=O)N[C@@H](CCCNC(=N)N)C(=O)O)C6=O)CC5)CC4)cc13)-c1cc3c(c(=O)n1C2)COC(=O)[C@]3(O)CC (stereo partly drawn) [IF7-SN38] (H-IFLLWQRC(X1)RR-OH; N-terminus and C-terminus assumed)
- blood brain barrier [1]: overcomes blood brain barrier
- side effects in the treated mice [2]: without producing any side effects
- side effects [3]: no apparent side effects
